{"source": "paper PMC5260945", "about": "(Nature structural & molecular biology, 2011)", "binders": {"B1": {"name": "TRABID AnkUBD (aa 245-339) (domain or fragment)", "chain": "LEVDFKKLKQIKNRMKKTDWLFLNACVGVVEGDLAAIEAYKSSGGDIARQLTADEVRLLNRPSAFDVGYTLVHLAIRFQRQDMLAILLTEVSQQA"}, "B2": {"name": "TRABID AnkUBD H317A (domain or fragment)", "chain": "B1 chain with H73A"}}, "key": {"[1]": {"molecular_target": "Unlabeled Ub (from bovine red blood cells, Sigma-Aldrich) (bovine, UniProt P0CG53 1-76)", "assay": "NMR titration"}, "15N-labeled Ub": {"molecular_target": "15N-labeled Ub (UniProt P0CG47 1-76)", "assay": "NMR titration"}}, "note": "Residue numbers refer to the chain shown, from its start. Names and notes keep the numbering of the source."}
{"binder": "B1", "values": [{"measurement": "binding result", "setting": "[1]", "result": "binds"}, {"measurement": "Kd", "setting": "15N-labeled Ub", "result": "134 ± 19", "unit": "µM"}]}
{"binder": "B2", "values": [{"measurement": "Kd", "setting": "15N-labeled Ub", "result": "> 1200", "unit": "µM"}]}
